B1: P2RY14 (parent)
chain: KLLSVIVWMLMLLLAVPNIILTNQ
B2: RHOBTB3 (parent)
chain: KVVEAHKIVLCAVSHVFMLLFNVK

Variants of: B1
Assay: protein stability index of a GFP-peptide fusion (GPS, HEK-293T) (PSI 1-6); higher = more stable
Details: c terminus: a fixed tail appended
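Further: lentivirally expressed fusions sorted by FACS into six bins by GFP to DsRed ratio, PSI derived from sequencing read proportions per bin multiplied by bin number.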

Protein stability index, by site and new letter:
L13: Y 3.48; A 2.98; I 1.81; S 3.29; T 2.38; G 2.79; N 3.02; P 3.47; D 3.11; H 4.28; F 3.72; K 1.78; R 2.15; V 1.84
V5: W 2.74; I 3.93; E 2.42; S 3.98; D 3.22; A 3.26; Q 2.35; N 2.29; P 2.54; K 2.52; M 1.71; G 4.02; F 2.09; Y 2.63; T 3.51; L 2.11; H 3.85; R 2.79
N23: T 2.97; Y 2.21; F 2.98; R 1.92; W 2.57; D 3.86; M 2.42; G 2.54; K 2.45; C 2.15; V 2.99; H 3.59; A 2.34; E 3.67; I 1
L21: E 2.6; P 1.98; D 2.99; I 3.12; G 3.21; R 4.98; C 3.7; F 2.73; T 3.22; H 2.2; A 3.89; N 2.28; M 2.96; S 2.57
I20: K 3.1; A 2.31; S 3.35; V 2.79; L 2.52; D 3.27; F 2.73; P 4.08; E 3.69; Y 3.09; N 2.31; C 1.86
L2: K 2.76; F 2.29; D 2.67; N 1.89; I 3.46; G 2.21; P 3.19; C 3.88
L12: R 2.69; C 3.75; G 3.74; F 2.59; N 2.32; Q 2.51; P 3.18; A 2.7; D 2.65; M 3.06; H 2.22
N18: T 2.89; P 2.78; C 2.1; W 1.92; R 1.49; Y 2.09; K 2.59; H 3.81; G 3.62; E 2.5; L 1.65; A 1.99; I 2.63; F 2.16; V 1.58
L10: Q 3.16; P 2.86; G 2.08; D 2.5; E 4.43; N 1.95; T 3.58; Y 3.48; W 2.31; H 3.63; S 4.89; C 1.39; I 3.19; F 3.32; M 3.84; V 2.99
T22: K 3.2; F 2.97; N 2.75; M 2.38; H 2.69; I 2.32; V 4.59; Y 3.3; A 2.75; W 2.92; D 4.01; S 3.96; L 2.2
W8: H 2.85; Q 1.99; I 3.03; V 2.86; M 3.83; R 2.67; G 2.81; K 3.73; T 3.35; E 3.97; L 1.76; Y 2.21; F 2.3; P 1.85; N 2.41; C 1.95
S4: V 3.9; N 2.81; F 2.98; Q 2.56; K 5.66; G 2.85; Y 2.82; P 3.34; H 3.18; W 4.74; R 2.78; I 2.44; T 2.53
L3: K 3.61; Y 2.55; F 3.42; N 4.61; A 2.27; T 2.93; M 1.64; W 3.69; E 2.78; H 1.3; S 2.35; I 1.73
A15: P 2.35; E 2.84; H 3.28; N 3.1; M 3.03; C 3.31; W 2.2; V 2.77; L 2.56; D 3.06; K 3.74; Q 3.12
P17: H 2.96; L 2.97; E 3; Q 2.82; M 1.52; W 1.98; V 1.23; I 1.95; K 3.35; T 2.4; N 2.08; G 3.39; Y 1.54; C 2.41; S 3.12; D 2.68; R 2.8; A 2.56; F 2.69
Q24: K 2.6; T 2.81; I 2.79; P 2.59; V 1.96; R 3.28; W 2.33; H 2.8; L 3.08; F 2.69; G 2.91; C 2.79; D 4.62; E 2.74
I19: D 2.8; F 2.98; T 3.06; K 1.76; S 2.07; Y 3.02; A 3.24; N 3.66; R 2.2; P 3.43; Q 1.89; M 1.29
V16: T 2.01; H 2.06; C 3.32; E 2.6; G 2.36; A 2.77; N 3.98; Q 3.43; F 4.27; D 2.52; L 3.59; M 3.43; S 2.89; P 2.75; I 3.43
V7: A 2.07; P 2.8; M 3.08; K 4.05; T 3.76; R 2.31; D 3.57; W 4.44; E 2.65; Q 2.74; H 2.11; F 2.12; Y 3.99; S 2.28
I6: F 2.8; N 3.01; D 2.02; V 4.09; W 2.02; P 1.89; A 2.45; R 2.43; M 3.13; G 2.2; T 2.48; S 2.39; L 4.14
K1: W 1.35; R 2.35; Q 4.07; Y 3.13
M11: I 3.17; E 2.06; Y 2.38; W 2.89; N 2.42; S 2.01; V 3.42; R 2.58; Q 1.1; H 3; K 2.5; D 4.89; F 3.31; P 3.16; A 2.06
L14: G 2.27; I 2.49; P 4.16; H 2.92; D 3.07; S 3.42; K 2.95; W 2.51; A 2.24; E 3.48; T 3.16; M 3.33; N 2.75; C 2.41; V 1.32
M9: Q 3.1; L 3.19; S 3.82; W 2.15; A 3.79; G 2.87; N 2.1; K 3.05; D 4.27; E 2.68

Variants of: B2
Assay: as above
Details: c terminus: a fixed tail appended

Protein stability index of substitutions, site by site:
K1: L 3.15; I 2.87; S 2.46; A 3.06; H 2.2; Q 1.9; D 4.55; N 2.52; E 3.04; G 2.31; C 3.06; F 4.17; P 3.1; R 2.68
